In paper PMC11132685:

Target: tetrabrachion-stabilised recombinant N2 NA (NACHO) of A/MORAMANGA/1907/2017 (not stated | influenza A virus (H3N2) A/MORAMANGA/1907/2017)
Test: SEC-MALS; purified NACHOs; oligomeric state; conditions not given

Substance: tetrabrachion-stabilised recombinant N2 NA (NACHO) of A/MORAMANGA/1907/2017 (enzyme)
- stoichiometry N: 4
